Legend:
[1] = biological target: tumor necrosis factor alpha (TNF-α), R&D Systems 210-TA-005 (UniProt P01375); experiment: c-PLA 1X probes, buffer; TNF-α 1.00E-08 M
[2] = biological target: tumor necrosis factor alpha (TNF-α), R&D Systems 210-TA-005 (UniProt P01375); experiment: c-PLA, buffer; TNF-α 1.00E-10 M
[3] = biological target: tumor necrosis factor alpha (TNF-α), R&D Systems 210-TA-005 (UniProt P01375); experiment: t-PLA 1X probes, human plasma; TNF-α 1.00E-11 M
[4] = biological target: tumor necrosis factor alpha (TNF-α), R&D Systems 210-TA-005 (UniProt P01375); experiment: c-PLA 10X probes, buffer; TNF-α 1.00E-09 M
[5] = biological target: tumor necrosis factor alpha (TNF-α), R&D Systems 210-TA-005 (UniProt P01375); experiment: t-PLA, buffer; TNF-α 1.00E-08 M
[6] = biological target: tumor necrosis factor alpha (TNF-α), R&D Systems 210-TA-005 (UniProt P01375); experiment: SPR (Biacore T200), biotinylated antibody on CAP chip, 1:1 fit
[7] = biological target: tumor necrosis factor alpha (TNF-α), R&D Systems 210-TA-005 (UniProt P01375); experiment: c-PLA, buffer; TNF-α 1.00E-11 M
[8] = biological target: tumor necrosis factor alpha (TNF-α), R&D Systems 210-TA-005 (UniProt P01375); experiment: t-PLA 10X probes, human plasma; TNF-α 1.00E-13 M
[9] = biological target: tumor necrosis factor alpha (TNF-α), R&D Systems 210-TA-005 (UniProt P01375); experiment: t-PLA, buffer; TNF-α 5.00E-07 M
[10] = biological target: tumor necrosis factor alpha (TNF-α), R&D Systems 210-TA-005 (UniProt P01375); experiment: t-PLA 1X probes, human plasma; TNF-α 1.00E-10 M
[11] = biological target: tumor necrosis factor alpha (TNF-α), R&D Systems 210-TA-005 (UniProt P01375); experiment: t-PLA 1X probes, buffer; TNF-α 1.00E-09 M
[12] = biological target: tumor necrosis factor alpha (TNF-α), R&D Systems 210-TA-005 (UniProt P01375); experiment: c-PLA 10X probes, human plasma; TNF-α 1.00E-08 M
[13] = biological target: tumor necrosis factor alpha (TNF-α), R&D Systems 210-TA-005 (UniProt P01375); experiment: c-PLA 10X probes, buffer; TNF-α 1.00E-11 M
[14] = biological target: tumor necrosis factor alpha (TNF-α), R&D Systems 210-TA-005 (UniProt P01375); experiment: c-PLA 10X probes, buffer; TNF-α 5.00E-07 M
[15] = biological target: tumor necrosis factor alpha (TNF-α), R&D Systems 210-TA-005 (UniProt P01375); experiment: c-PLA 1X probes, buffer; TNF-α 1.00E-10 M
[16] = biological target: tumor necrosis factor alpha (TNF-α), R&D Systems 210-TA-005 (UniProt P01375); experiment: t-PLA 10X probes, buffer; TNF-α 1.00E-10 M
[17] = biological target: vascular endothelial growth factor (VEGF), R&D Systems 293-VE-010 (human) (UniProt P15692); experiment: c-PLA with preamplification; VEGF 1.00E-09 M
Sequence of UniProt P15692 (P15692 other isoform, or with tags, fused parts or gaps limits assumed): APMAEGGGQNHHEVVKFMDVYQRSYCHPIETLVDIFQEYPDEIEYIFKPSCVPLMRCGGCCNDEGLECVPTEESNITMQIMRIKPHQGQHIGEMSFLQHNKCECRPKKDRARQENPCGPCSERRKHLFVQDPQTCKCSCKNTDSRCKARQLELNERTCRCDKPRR

[18] = biological target: vascular endothelial growth factor (VEGF), R&D Systems 293-VE-010 (human) (UniProt P15692); experiment: c-PLA, chicken plasma; VEGF 1.00E-09 M
[19] = biological target: vascular endothelial growth factor (VEGF), R&D Systems 293-VE-010 (human) (UniProt P15692); experiment: c-PLA, buffer; VEGF 1.00E-09 M
[20] = biological target: vascular endothelial growth factor (VEGF), R&D Systems 293-VE-010 (human) (UniProt P15692); experiment: c-PLA, human plasma; VEGF 1.00E-12 M
[21] = biological target: vascular endothelial growth factor (VEGF), R&D Systems 293-VE-010 (human) (UniProt P15692); experiment: t-PLA, human plasma; VEGF 1.00E-14 M
[22] = biological target: vascular endothelial growth factor (VEGF), R&D Systems 293-VE-010 (human) (UniProt P15692); experiment: t-PLA with preamplification; VEGF 1.00E-08 M
[23] = biological target: vascular endothelial growth factor (VEGF), R&D Systems 293-VE-010 (human) (UniProt P15692); experiment: t-PLA with preamplification; VEGF 1.00E-13 M
[24] = biological target: vascular endothelial growth factor (VEGF), R&D Systems 293-VE-010 (human) (UniProt P15692); experiment: t-PLA, buffer; VEGF 1.00E-10 M
[25] = biological target: vascular endothelial growth factor (VEGF), R&D Systems 293-VE-010 (human) (UniProt P15692); experiment: c-PLA with preamplification; VEGF 1.00E-11 M
[26] = biological target: vascular endothelial growth factor (VEGF), R&D Systems 293-VE-010 (human) (UniProt P15692); experiment: c-PLA, human plasma; VEGF 1.00E-14 M
[27] = biological target: vascular endothelial growth factor (VEGF), R&D Systems 293-VE-010 (human) (UniProt P15692); experiment: c-PLA, chicken plasma; VEGF 1.00E-10 M
[28] = biological target: vascular endothelial growth factor (VEGF), R&D Systems 293-VE-010 (human) (UniProt P15692); experiment: c-PLA, human plasma; VEGF 1.00E-08 M

Sequence of UniProt P01375 (P01375 77-233 limits assumed): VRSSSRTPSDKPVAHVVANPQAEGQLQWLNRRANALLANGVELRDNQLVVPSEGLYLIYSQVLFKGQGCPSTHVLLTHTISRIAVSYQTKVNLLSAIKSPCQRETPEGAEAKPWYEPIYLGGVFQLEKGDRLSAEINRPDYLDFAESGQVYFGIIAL

Substance “affinity-purified polyclonal anti-TNF-α antibody (R&D Systems AF-210-NA)” has a Counts [1] of 11600, an SBR [1] of 730 and a Counts [2] of 260. For the same substance, the Counts [3] was 745000, the SBR [3] was 3.1 and the Counts [4] was 80000. The SBR [4] was 437, the Counts [5] was 5.4e+07 and the SBR [5] was 317. It also gave a Kd [6] of 0.28 nM, a Counts [7] of 22.1 and a Counts [8] of 1.36e+07. For the same substance, the SBR [8] was 1.2, the Counts [9] was 1.33e+08 and the SBR [9] was 780. It also gave a Counts [10] of 1.56e+06, an SBR [10] of 6.6 and a Counts [11] of 1.98e+07. It also gave a Counts [12] of 158000, an SBR [12] of 73 and a Counts [13] of 590. For the same substance, the Counts [14] was 650000, the SBR [14] was 3550 and the Counts [15] was 260. It also gave a Counts [16] of 2.75e+07 and an SBR [16] of 4.8.
With “affinity-purified polyclonal anti-VEGF antibody (R&D Systems AF-293-NA)” the Counts [17] was 2.36e+08, the SBR [17] was 3970 and the Counts [18] was 73600. It also gave an SBR [18] of 7980, a Counts [19] of 778000 and an SBR [19] of 26200. It also gave a Counts [20] of 408, an SBR [20] of 1.6 and a Counts [21] of 1.63e+06. For the same substance, the Counts [22] was 1e+09, the SBR [22] was 5680 and the Counts [23] was 577000. It also gave an SBR [23] of 3.3, a Counts [24] of 7.59e+08 and an SBR [24] of 2190. It also gave a Counts [25] of 4.88e+06, an SBR [25] of 82 and a Counts [26] of 292. It also gave an SBR [26] of 1.1, a Counts [27] of 26800 and an SBR [27] of 2900. It also gave a Counts [28] of 24800 and an SBR [28] of 96.
